The data set can be described thus: protease stability score; higher = more stable; yeast display proteolysis, trypsin and chymotrypsin.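 Note: log10 excess protease needed over predicted unfolded state with 0 meaning unfolded.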

“DEEVANTAVKVAQTGDFQQMVEHADPNVRAVVGDKEYHGREQFQEAMTIIRERVDHYHVDKITIEGDDVRVDMQIDFNGRRVRAEVSIRASNGRIKEMHINARDEDDHRTLRKLLK” came in with a protease stability score of 0.432.

The sequence “DEEVAQDVRRNVERGDWKRWAELADENARVSVGDNTYEGRNDWHKYVKDLEHQVDHFEVKHITIENGKIKVDFVLTVNGHEVRMKQVIVVTNGRISRLRIQATDTDVQRQLNEAMR” returned a protease stability score of -0.066. Turning to “DEEVAREMMTKWMRAVQKGDPDTVDKIYNPNGKWKAIDTERQGSEHIKKVMQRVKKQGVEFQVRKAKVEGNQAVVIYDFKLANKTVTFTVELRVQGGRVKEVRVEVDEEAKKDMKKG”, the protease stability score came out at 1.14.

The sequence “DEEVEDLYQKIKRAQETGDHKQLRDNFDEEVRIKVGDKTIHGMTRAAKKITREWRHINIDVKVEHVQISNGRLRVRYRFVENDNGKPKTTAANFSMEAHNGRVKHVHVQDDS” displayed a protease stability score of 0.112.

In the case of “DEEVEEQVKELKRILETGDEDRMQENADPNVRAVYGNKEIHGRDQLREEIRSLKDEMRYEVEIKDYRIRPNEADVRATWHMRVNGQPMRQEVKVKIKFHNGKLKVFVLDFDEEHEKRSRK”, the protease stability score was -0.054. Sequence “DEEVEEVIHRLVKALRTNNPDQVNQQLDKDARIKVGDKEIQGRDRYKRTVEQKIQEMNFHIHIKRLEVQGDKVRITAQESSEHNGQPRQRRLKFELRVKNGRVKSAEYHVDK” returned a protease stability score of 0.183. The same measure for “DEEVEHQFRTYERALRQGDEQELRDQVDKNAEIEYGDRKIHGMDRAARKIARRVRELRVEDNFVSLEVKENHVQKNVDVVIEVNGRPVRFRADMQVQVHNGKVKEIRVQVPEEVQKRVKE”: 0.127; for “DEEVERLFKRFMSAVDEGNPDELKKQIDPNAKQHIGDKTYHGRETIASRIVKRRQKMRVTWKSISITDHNGTIKVTAHAVFNHNGRPKEVQLDIEVRAHGDQMKNFRVQVRG”: 0.328. “DEEVFDEFIKHMETGDFRYLQRMFDPNAKASVGNKTVHGREQVQTLLEQLHSQVDHYHLKDVDNNENRMRVHFVLNVNGKNIEAENVFEVRNGRLKHLSIKFRNPEDQEDARRRLE” came in with a protease stability score of 1.12. The same measure for “DEEVHKAITHYIEALHKGDPDRAANQMDENVRIEIGDKSITGREHAKHHLERLFKQMEFRITVDRVEVHNGTATAEIHWSSDRNGKPDSNTRRMTAEVHNGKIKQIVFKSDS”: 1.02; for “DEEVKDFAEKMLKNWHTGNWQHFAKLLDENAKIVIGDKRYHGTENFERMADSIQKQMSIRIESMSVEVHGEKAKFSATVVENHNGNPTRFHISAEVTVRGDKVDHFNQQNDS”: 1.04; for “DEEVKHSVDKYLQAVRQGDPDKLREMADENVTVDIGDTTYHGMSEYARRVVERQKKIRIHYDLKSLTVSGNHVKIDQEVVKHHNGKPERNRVTVIMHLNNGRIQSMSVKVDG”: 0.277. As for “DEEVKRLAERILSALERGDPQQISDNFDPNARLEIGDKRIHGREELRKYVDTVRKTQRISIRSFRVSVHNGQVDIDIHFENEHNGDPDERRRSINIQASNGKAKNVVYQDNK”, the protease stability score is -0.336.

Sequence “DEEVKSRADEFIKALKTGDPETISRLMDPNAQVEVGDKTIHGRENIMREIHNLKHRMNLSMEINNVDVQGDTVNIDAVVRFTHNGKPSEHKVDIQVVAQGDKIDHVVFDSTK” yielded a protease stability score of 1.22. As for “DEEVKSVAEQLMDVLQKGDPKQMSRLADKDVKINVGDKQYDGSEQLEKAVEDWKDEMRFQIEHVSISARGDKANVDFHVEFSFNGKPHSREVKVYIKVHNGRIKYLEYRVDPNEERKIKK”, the figure is -0.267; as for “DEEVKTLVERLVEALNTGDPDSAMHLVDENAKFQYGDRELHGRENVHKFVEDMKREIRIDMEVKRLRVEPGRVKLTAEFSLSVNGQPDHQSVTMRATAHNGQLKDVQFRLPPEKLEKLKS”, -0.199; as for “DEEVKTVAEEFWKAIQTGDPDQVKTQVDENARMRVGDKSIHGSDNISTDVERERKEIKVKYNIQDIRASNGTVRVRMDVRRNHNGKPREHEQTMTQTIDNGKIQDVNISTDG”, -0.46. As for “DEEVLDDVVKVMHQNDFSRLKELFDKNATIEVGDKRYHGREEAHKLMDIIKKKVDHVRIDKVHKSGNKVRIDAILEYNGNHMKVVFVIKLHNGQAKNIHIEFTSENLQNKFKTLVD”, the figure is 1.02; as for “DEEVLDFVKTMIKVEETGDEEKLKEMFDKNVKARVGDKKYHGMDHQARTIRKERESIKFKIKSITMRYKDGRVHASARVVRHENGKPDEYRETYVLQIHNGKVKTYSKQTDS”, -0.188; as for “DEEVLDTVLKALSTNNEEQFHRMADPNDRVSYGDKSIHGMVKAADVQREFRKRVDHIHIQRYDSEGDKAKVTYVAHVDGRNINITITFDVRNGTIRSINIRARNEKNQKRFEEVVG”, 0.245. The same measure for “DEEVLEEAKKRVETNDPQEFAHNVDENAEMTIGDKQYTGRDQFKHVADAWYERADKIEIKSYTTHNGKIHVNMRMRFDGRDIVFIVEFRVKNGRVQEYKFHVRDETAKTLQQQMLS”: 0.231. Take “DEEVLEQVKKYIDAEKSNDPDQAVKLFDENADMQIGDKRVNGREQIKTEIERRIREMNRDVEVTHVHVDNGRATLTVRLRFTVNGKPHEDRFIIQAHATNGRINTLTVHFDEQSKRDVDK”: the protease stability score worked out at 0.741. Regarding “DEEVLHLADRWWEAVDRGNERQLKDNADPNVKVRVGDKTIRGRDQMAKEVRHRREEQRVNYHHFRQDVSGDKANVTVHYTREHNGKPETNVIEVVFQAHNGKIVSITVRHDG”, the protease stability score is -0.148. As for “DEEVLKVAHDWFENVTQGDPDKLSRLMDKDARVNVGEKQYHGREEIMRQHERENKEAEVTFQKMDFKVTGDRAVVNVRVDVNINGQPFEVTFIFKLEVHNGRIKQIEMDFSEEQWDKLRR”, the figure is -0.211. The same measure for “DEEVLQEYREAFEEGDEERIQNLADENVKVTYGDKDYHGRHDMRKFMKWLKRAADRIEIKRYTQTGDKLRIVVVMHVNGQTIKFSVVVRVHNGNVKSVRMDATSEEDRKHFERVVD”: 0.755. Sequence “DEEVNHQMSRMWEANKRGDEHTLRELVDPNAKIDVGDKRVHGMEEYVKQVRNRREDLRWRFKIDHMSVDGDTVKFRARAVENENGRPQSYKFEQNVRVHNGKLTEQNQQDHG” came in with a protease stability score of 0.181.

The sequence “DEEVQELVERIMTAFRTGNPEEVHKNLDPNAHIEVGDKRLHGMETIVHTIERKLRHARIDMKIDEMEVRNGRVEARVSFHVDVNGEPYSNSFSFQIEARNGKVKKVRVQIDPRDQRKMDS” yielded a protease stability score of 0.877.

As for “DEEVQNLFEELVEAVKTGDEDRLRENVDPNATFEYGDKTFHGMDTFVKTVKKIRESMRLTLEVKSYEVQGDKVKAEVDAKQDHNGQPVSYTMDLHIDARNGKVKRIVRQVPEEDKTRIER”, the protease stability score is -0.032. As for “DEEVQRQLENNWQKMREGDEEHLTRHVDENARFDVGDKRVRGMENYVKDVRREREEMHVNMTYDDMHVQGNEIRFTVRARWDVNGKPYDDNFDHKYEYHNGRLKSAHVRVDEDFERKRRK”, the protease stability score is -0.089. “DEEVREVVKKMLEALKTGNSEQVRRNIDPNARLHVGEFDYHGQTQISEAVKRLSNEIKINYKDMKMRLHNGRVDVKVHQQNNSNGKPEEKTWRATIVAKNGRIKEIDQRDDK” showed a protease stability score of -0.481. Turning to “DEEVRHVAEEHFRAFSDNDPDRAKQLADPNARFQYGDREIHGMEDFVKHLETLKRDMRIQIHIKSMDVHNGRVDVTFNLMAHVNGQPFRIEVRATFEAHNGHLVEVQYRFDKKWQKTLES”, the protease stability score came to 0.861.

Sequence “DEEVRKAYHDAMKAEEKGDEDRIRELFDPNARVQVGDKTYQGREDISHNLAREQKHARYHIKHVDLQVHNGRLTVKQTYDFQHNGQPNSDRDKATIEADGENIKDVEVKQNP” returned a protease stability score of -0.27. “DEEVSEAVQRYLNALKHNNPDQVQEQMDPNARVQYGDKVLTGREDIKTFMDTKIEQMRLEIKSVSVDVHGEEVRVEADVVYTHNGQPRRNKITITARVHNGVFKSMRVETRG” returned a protease stability score of -0.064. The same measure for “DEEVVHDLENQFRKNNWEEFARQADENAKVNIGEFEISGRSQIEEWAHRVKKQVDHIDVKHVSYDEDHLRMRVVVVVNGRKFDFEVIINVSNGEVKHMEVRFRDPSQETEWLNQIN”: 1.61. As for “DEEVVKLLLELMKAWRTGDRDKAVKLMDPNVEIQVGDTYIHGREQNREEIKRIKDEIRWELSVKSYNQHNGQARIDADVTINVDGHPTHYRVDIRAEATNGEVKKITYNVPEEVLEEVKR”, the figure is 0.026.

Consider “DEEVVRQIEDNLNAQRRNDHEKLKENMDPNATVNVGDKQIHGMSQFAQHVRDMFRHIRRSIKDFRIEVRPNHANVDVKFEVNINGKPESMSANVSVRVTNGTVQEMTIRVDPEHVKRIRR”, for which the protease stability score is 0.816. The same measure for “DEEWEETMTRLVKTGDFQSLVRLAPEDVKYVVGEKRIHGREHASEFAKKLTEQIDRIQVKEMHVSGDRVRADFELEFNGRKLKAVLVVKIHGDKVREVMIEVTDEHDEDILREIDD”: 0.8. The same measure for “DEEWLHRFLQQYRSGDEDQMVRNMDKDVKIDVGDKEIHGREEAERWYRELKKRIDHFEVDHIKIQGESATADVRMNVNGRDVKFTLHVEAHNGRVKYVRLQATSSEVKTRMDRALG”: 0.198. The same measure for “DEEYAHQLREFLEAWVSGDENRAKQLADPNARVNVGEERISGMDEFMKEVRKRKKEMRIEVKHIKIEVRPNKAKADVKFRVNFNGTPFDVNQKWQAHWHNGKLHSVTVNMDEDQKRFEKG”: 0.451; for “DEEYNKKVQDIFNTNDPSQFKSLIDPNARMEVGDHVFHGRHNIVKHLKKFRDQVDHFEIKEIDVKGNKLSMEFVAVVNGKRVRATMSQQAHNGRMQEIRIKATSEEDKKILKEVTS”: -0.048; for “DEHAARVFLELLKAAETGDEKRLKRLADPNARIQVGDKHVDGMDEATKKIVKTWEKSRIRFEIKSYDVDGEKVRVNMQMTNRDNGEPDSKNAHFTVEVRNGHIKHADLQHHG”: -0.223. As to “DEHAARVQHEIQKVQETGDEERVRELVDPNVKIQVGDKTIHGMDEYLTRVKKRMDELRFSVTWRHYDVHNGQVNVKVEFTKDHNGKPQRDVMVMKFHIHNGRVQFLSMEKDQ”, the protease stability score came out at 0.843. The same measure for “DEHADTIVKKYLDAIKSNNPEDVKENVDKDVDVEVGDTSWHGRDEVVTRVQNELDEIRIDMKVDEVNNQGNHVEVKMHMTLDINGKPATVDWDVKFDIQNGRIQSIRLRPDEENRKQKEK”: 0.057. As for “DEHAEDLFRQLKEAEDTGDEDHFRRLVDPNAHFEIGNKHVHGREERATQMKQQKKQIRVEIKSMDYRVDGEKVEARVDATYNFNGRPDRMHIVIDIEFHNGRVTNARYRLDEEDLKRVEK”, the figure is 0.308; as for “DEHAEHIATEWWKAIRTNNPERARELVDKDVKINVGDKRIHGREQVDREIKRLNNTSRQDYKSMHMTVKGDKVRVEMNKRQEDNGNPRSKNFEVVFDFHNGRIRHISVHETK”, -0.381. As to “DEHAERIFRKWMTIYKKGDPKKVKELLDPNARVRIGDKRIRGRETAAEQQSTRADEMRNDVKVKHLEVNGDDLVVRIKFTSEENGNPKDQEAKFDWNIHNGKIRSQTQDIKG”, the protease stability score was -0.017.

(Values after the NTF2 design screens of Basanta et al. (2020).)
